In paper PMC2396850:

Biological target: various tetraspanins
Assay: co-IP

B1: Tumour-associated antigen L6 (L6-Ag), endogenous (natural protein)
chain: MCYGKCARCIGHSLVGLALLCIAANILLYFPNGETKYASENHLSRFVWFFSGIVGGGLLMLLPAFVFIGLEQDDCCGCCGHENCGKRCAMLSSVLAALIGIAGSGYCVIVAALGLAEGPLCLDSLGQWNYTFASTEGQYLLDTSTWSECTEPKHIVEWNVSLFSILLALGGIEFILCLIQVINGVLGGICGFCCSHQQQYDC
For B1, the percent of the total L6-Ag co-immunoprecipitated (% of the total L6-Ag) was 10 to 15.
